Values of other authors as cited in publication PMC10616597.

Target: TLR4 (Homo sapiens) (UniProt O00206)
Sequence of UniProt O00206 (O00206 24-839): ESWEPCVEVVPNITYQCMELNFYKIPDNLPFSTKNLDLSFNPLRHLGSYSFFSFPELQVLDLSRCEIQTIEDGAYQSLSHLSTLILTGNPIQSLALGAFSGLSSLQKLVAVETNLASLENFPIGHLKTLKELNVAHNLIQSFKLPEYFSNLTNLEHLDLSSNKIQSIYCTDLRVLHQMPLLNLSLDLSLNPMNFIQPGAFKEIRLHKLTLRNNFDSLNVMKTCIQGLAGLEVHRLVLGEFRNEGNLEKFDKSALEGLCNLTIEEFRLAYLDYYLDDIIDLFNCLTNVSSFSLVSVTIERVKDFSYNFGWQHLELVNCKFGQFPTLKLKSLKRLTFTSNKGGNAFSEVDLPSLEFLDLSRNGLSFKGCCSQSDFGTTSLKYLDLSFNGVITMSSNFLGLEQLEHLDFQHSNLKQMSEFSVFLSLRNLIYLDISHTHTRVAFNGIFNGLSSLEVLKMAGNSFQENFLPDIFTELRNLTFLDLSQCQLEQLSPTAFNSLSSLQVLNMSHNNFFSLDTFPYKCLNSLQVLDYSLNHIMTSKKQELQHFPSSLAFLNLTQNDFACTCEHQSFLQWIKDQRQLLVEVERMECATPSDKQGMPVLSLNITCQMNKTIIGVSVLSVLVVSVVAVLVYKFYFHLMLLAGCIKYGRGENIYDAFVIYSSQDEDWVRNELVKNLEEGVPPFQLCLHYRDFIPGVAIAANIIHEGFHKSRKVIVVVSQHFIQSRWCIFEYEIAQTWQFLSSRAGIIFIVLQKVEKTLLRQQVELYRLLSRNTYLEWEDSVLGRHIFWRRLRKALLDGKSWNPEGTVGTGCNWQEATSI

Kd: 18 nM
Substance: eNAMPT (from UniProt P43490)
